Data taken from the nanobody polyreactivity screen of Harvey et al. (2022).

Experiment: yeast display, Sf9 membrane polyspecificity reagent, FACS + sequencing; frameworks hold sequencing errors
In short: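 Nanobodies came from a synthetic yeast display library in Saccharomyces cerevisiae BJ5465, induced with galactose for 36–48 hours and stained for 1 hour at 4 °C with 10% biotinylated, detergent-solubilized Sf9 membrane reagent. Cells were enriched on streptavidin microbeads and then FACS-sorted, with low and high (top ~1%) gates set on anti-HA fluorescence for expression and streptavidin fluorescence for reagent binding. Each polyreactivity label reflects the gate a clone came from. Genes were amplified by colony PCR, sequenced by MiSeq 2 × 250 and filtered by CDR length.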

## QVQLVESGGGLVQAGGSLRLSCAASGSTFPKYAMGWYRQAPGKERELVAVITSGGSTYYADSVMGRFTISRDNAKNTVYLQMNSLKPEDTAVYYCAARKYRRFDYWGQGTQVTVSS
  polyreactivity (PSR sort gate): high polyreactivity

## QVQLVESGGGLVQAGGSLRLSCAASGSTFPKYGMGWYRQAPGKESEFVARINWNGGGTYYADSVKGRFTISRDNAKNTVYLQMNSLKPEDTAVYYCNARKRGARFILGYDYWGQGTQVTVSS
  polyreactivity (PSR sort gate): low polyreactivity

## QVQLVESGGGLVQAGGSLRLSCAASGSTFPLNAMGWYRQAPGKESEFLDAISYRGSSTYYADSVKGRFTISRDNAKNTVYLQMNSLKPEDTAVYYCSANPNTYYYRRGYDYWGQGTQVTVSS
  polyreactivity (PSR sort gate): high polyreactivity

## QVQLVESGGGLVQAGGSLRLSCAASGSTFPLYAMGWYRPAPGKEREFVAAINRSTGTTYYADSVKGRFTISRDNAKNTVYLQMNSLKPEDTAVYYCAARVYYRTVLGGYYYWGQGTQVTVSS
  polyreactivity (PSR sort gate): low polyreactivity

## QVQLVESGGGLVQAGGSLRLSCAASGSTFPLYTMGWYRQAPGKERELVAAINYGGTSTYYADSVKGRFTISRDNAKNTVYLQMNSLKPEDTAVYYCKQFVPGRYYWGQGTQVTVSS
  polyreactivity (PSR sort gate): high polyreactivity

## QVQLVESGGGLVQAGGSLRLSCAASGSTFPPNAMGWYRQAPGKERELVAAISFSSGRTYYADSVKGRFTISRDNAKNTVYLQMNSLKPEDTAVYYCAADHGYWGQGTQVTVSS
  polyreactivity (PSR sort gate): low polyreactivity

## QVQLVESGGGLVQAGGSLRLSCAASGSTFPPYAMGWYRQAPGKERELVAAITASGGRTYYADSVKGRFTLSRDNAKNTVYLQMNSLKPEDTAVYYCAALRGSTYDYWGQGTQVTVSS
  polyreactivity (PSR sort gate): high polyreactivity

## QVQLVESGGGLVQAGGSLRLSCAASGSTFPPYGMGWYRQAPGKERELVASITSGGSTNYADSVKGRFTISRDNAKNTVYLQMNSLKPEDTAVYYCNADLHSHYDYWGQGTQVTVSS
  polyreactivity (PSR sort gate): low polyreactivity

## QVQLVESGGGLVQAGGSLRLSCAASGSTFPRNAMGWYRQAPGKERELVAVITGSGGSTYYADSVKGRFTISRDNAKNTVYLQMNSLKPEDTAVYYCNARPTRRTRYDSWGQGTQVTVSS
  polyreactivity (PSR sort gate): high polyreactivity

## QVQLVESGGGLVQAGGSLRLSCAASGSTFPRYAMGWYIPAPGNERELVAAISSGGSTYYADSVKGRFTISRDNAKNTVYLQMNSLKPEDTAVYYCNARRSRSRYDYWGQGTQVTVSS
  polyreactivity (PSR sort gate): high polyreactivity

## QVQLVESGGGLVQAGGSLRLSCAASGSTFPRYAMGWYRQAPGKERELVASITSDGGSTYYADSVKGRFTISRDNAMNTVYLQLNSLKPEDTAVYYCNKVTYRGYRRYGYWGQGTQVTVSS
  polyreactivity (PSR sort gate): high polyreactivity

## QVQLVESGGGLVQAGGSLRLSCAASGSTFPRYGMGWYRQAPGKERELVATITNGAITYYADSVKGRFTISRDNAKNTVYLQMNSLKPEDTAVYYCAARHFQVPDYFPEYHYWGQGTQVTVSS
  polyreactivity (PSR sort gate): low polyreactivity

## QVQLVESGGGLVQAGGSLRLSCAASGSTFPSYAMGWYRQAPGKERELVAAINSGGGTNYADSVKGRFTISRDNAKNTVYLQMNSLKPEDTAVYYCNTDILSIYAEPYYFTDVDYWGQGTQVTVSS
  polyreactivity (PSR sort gate): low polyreactivity

## QVQLVESGGGLVQAGGSLRLSCAASGSTFPSYAMGWYRQAPGKERELVAAISRSGGSTYYADSVKGRFTISRDNAKNTVYLQMNSLKPEDTAVYYCAARGHLRYESDYWGQGTQVTVSS
  polyreactivity (PSR sort gate): high polyreactivity

## QVQLVESGGGLVQAGGSLRLSCAASGSTFPSYAMGWYRQAPGKERELVAAITNGGSTTYADSVKGRFTISRDNAKNTVYIQMNSLKPEDTAVYYCAARYYYYYYYIRRDYWGQGTQVTVSS
  polyreactivity (PSR sort gate): low polyreactivity

## QVQLVESGGGLVQAGGSLRLSCAASGSTFPSYVMGWYRQAPGKEREMVAAISSSGGRTYYADSVKGRFTISRDNAKNTVYLQMNSLKPEDTAVYYCAAKRGPLVNDHQFWGQGTQVTVSS
  polyreactivity (PSR sort gate): high polyreactivity

## QVQLVESGGGLVQAGGSLRLSCAASGSTFPTNTMGWYRQAPGKERELVATIRKSSGRTYYADSVKGRFTISRDNAKNTVYLQMNSLKPEDTAVYYCNARRYSGALRYDYWGQGTQVTVSS
  polyreactivity (PSR sort gate): high polyreactivity

## QVQLVESGGGLVQAGGSLRLSCAASGSTFPTYAMGWYRQAPGKERELVAAITSGSGTNTYYADSVKGRFTISRDNAKNTVYLQMNSLKPEDTAVYYCAKSFRKKYGWGQGTQVTVSS
  polyreactivity (PSR sort gate): high polyreactivity

## QVQLVESGGGLVQAGGSLRLSCAASGSTFPTYAMGWYRQAPGKERELVADITWSGGSTYYADSVKGRFTISRDNAKNTVYLQMNSLKPEDTAVYYCNAAHRKGMYYWGQGTQVTVSS
  polyreactivity (PSR sort gate): high polyreactivity

## QVQLVESGGGLVQAGGSLRLSCAASGSTFPTYGMGWYRQAPGKEREFVARINWNGGGTYYADSVKGRFTISRDNAKNTVYLQMNSLKPEDTAVYYCNARKRGARFILGYDYWGQGTQVTVSS
  polyreactivity (PSR sort gate): low polyreactivity

## QVQLVESGGGLVQAGGSLRLSCAASGSTFPVNAMGWYIQAPGKERELVARIRGSGGSTYYADSVKGRFTISRDNAKNTVYLQMNSLKPEDTAVYYCNADPVRSGLDYWGQGTQVTVSS
  polyreactivity (PSR sort gate): high polyreactivity

## QVQLVESGGGLVQAGGSLRLSCAASGSTFPVNAMGWYRQAPGKERELVAAISSRGSSTYYADSVKGRFTISRDNAKNTVYLQMNSLKPVDTAVYYCAAPQRYPRFYYWGQGTQVTVSS
  polyreactivity (PSR sort gate): high polyreactivity

## QVQLVESGGGLVQAGGSLRLSCAASGSTFPVNAMGWYRQAPGKERELVAAISSTGTSTYYADSVKGRFTISRDNAKNTVYLQMNSLKPEDTAGYYCAAETWVWGYVLYDYWGQGTQVTVSS
  polyreactivity (PSR sort gate): high polyreactivity

## QVQLVESGGGLVQAGGSLRLSCAASGSTFPVNAMGWYRQAPGKEREMVASITWGDGSTYYADSVKGRFTISRDNAKNTVYLQMNSLKPEDTADYYCNKDFFYGYDAASYRPEYDYWGQGTQVTVSS
  polyreactivity (PSR sort gate): low polyreactivity

## QVQLVESGGGLVQAGGSLRLSCAASGSTFPVNTMGWYRQAPGKERELVAAISWSGGRTYYADSVKGRFTISRDNAKNTVYLQMNSLKPEDTAVYYCAAEWEGTYTTVPDEFNYWGQGTQVTVSS
  polyreactivity (PSR sort gate): high polyreactivity

## QVQLVESGGGLVQAGGSLRLSCAASGSTFPVYAMGWYIQAPGKERELVAAISYSGTRTYYADSVKGRFTISRDNAKNTVYLQMNSLKPEDTAVYYCAADFEGYGQGYGYWGQGTQVTVSS
  polyreactivity (PSR sort gate): low polyreactivity

## QVQLVESGGGLVQAGGSLRLSCAASGSTFPVYAMGWYRQAPGKERELVAAITSGGSTNYADSVKGRFTISRDNAKNTVYLQMNSLKPEDTAVYYCNAEDIYRKRDFYHRLYDYWGQGTQVTVSS
  polyreactivity (PSR sort gate): low polyreactivity

## QVQLVESGGGLVQAGGSLRLSCAASGSTFPVYAMGWYRQAPGKERELVAAITSGGSTYYADSVKGRFTISRDNAKNTVYLQMNSLKPEDTAVYYCAAEDSSPAYNHWGQGTQVTVSS
  polyreactivity (PSR sort gate): low polyreactivity

## QVQLVESGGGLVQAGGSLRLSCAASGSTFPYNAKGWYRQAPGKERELVAAITTRGSTYYADSVKGRFTISRDNAKNTVYLQMNSLNPEESAVYYCANGPSLWYRSSFRGEGDYWGQGTQVTVSS
  polyreactivity (PSR sort gate): low polyreactivity

## QVQLVESGGGLVQAGGSLRLSCAASGSTFPYNAMGWYIQAPGKERELVAAISSRGGRTYYADSVKGRFSISRDNAKYTVYLQMNSLKPEDTAVYYCAARVVSRKDMNYWGQGTQVTVSS
  polyreactivity (PSR sort gate): high polyreactivity

## QVQLVESGGGLVQAGGSLRLSCAASGSTFPYNAMGWYRQAPGKDRELVAAITWRAGRTYYADSVKGRFTISRDNAKNTVYLQMNSLKPEDTAVYYCAKSYQRGVNHYEYWGQGTQVTVSS
  polyreactivity (PSR sort gate): high polyreactivity

## QVQLVESGGGLVQAGGSLRLSCAASGSTFPYNAMGWYRQAPGKEREFVAAITSDDTTNYADSVKGRFTISRDNAKKTVYLQMNSLKPEDTAVYYCAAEYRYPYLRGAGDYWGQGTQVTVSS
  polyreactivity (PSR sort gate): low polyreactivity

## QVQLVESGGGLVQAGGSLRLSCAASGSTFPYNAMGWYRQAPGKERELVAAITWRAGRTYYADSVKGRFTSSRDNAKNTVYLQMNSLKPEDTAVYYCAKSYQRGVNHYEYWGQGTQVSVSS
  polyreactivity (PSR sort gate): high polyreactivity

## QVQLVESGGGLVQAGGSLRLSCAASGSTFPYNAMGWYRQAPGKERELVATIDRGSTTNYADSVKGRFTISRDNAKNTVYLQMNSLKPEDTAVYYCNAKFIWWYEKGGWNVSKYEYWGQGTQVTVSS
  polyreactivity (PSR sort gate): low polyreactivity

## QVQLVESGGGLVQAGGSLRLSCAASGSTFPYNARGWYRQAPGKETELVAAISSSGGSTYYADSVKGRFTISRDNAKNTVYLQMNSLKPVDTEVYYCNAVLRYSIYPSSSFSYVGYYYWGQGTQVSVSS
  polyreactivity (PSR sort gate): high polyreactivity

## QVQLVESGGGLVQAGGSLRLSCAASGSTFPYYAMGCYRQAPGKERELVAAISWSDANTYYADSVKGRFTISRDNAKNTVYLQMNSLKPEDTAVYYCAAEPYDRYVPYTGYGLNYWGQGTQVTVSS
  polyreactivity (PSR sort gate): low polyreactivity

## QVQLVESGGGLVQAGGSLRLSCAASGSTFPYYAMGWYRQAPGKERELVAAISSSGGSTYYADSVKGRFTISRDNAKNTVYLQMNSLKPEDTAVYYCATSSRYVDGYEMDYWGQGTQVSVSS
  polyreactivity (PSR sort gate): high polyreactivity

## QVQLVESGGGLVQAGGSLRLSCAASGSTFPYYTMGWYRQAPGKERELVAAIRYSGSSTYYADSVKGRFTISLDNAKNSVYLQMNSLKPEDTAVYSCAKTLWRRRGDRRYRVIEMDHWGQGTQVTVSS
  polyreactivity (PSR sort gate): low polyreactivity

## QVQLVESGGGLVQAGGSLRLSCAASGSTFPYYTMGWYRQAPGKERELVAAITWRGGRTYYADSVKGRFTISRDNAKYTVYLQMNSLKPEDTAVYYCNAYGIDTGDYWGQGTQVTVSS
  polyreactivity (PSR sort gate): high polyreactivity

## QVQLVESGGGLVQAGGSLRLSCAASGSTFQDYAMGWYRQAPGKERELVAAISKRGGRTYYADSVKGRFTISRDNAKNTVYLQMNSLKPEETAVYYCNTYPVPGGVTYSYTGFDYWGQGTQVTVSS
  polyreactivity (PSR sort gate): high polyreactivity

## QVQLVESGGGLVQAGGSLRLSCAASGSTFQFNAMGWYRQAPGKEREFVAAITSSAGRTYYADSVKGRFTISRDNAKNTVYLQMNSLKPEDTAVYYCAATFYRRYVDLGYWGQGTQVTVSS
  polyreactivity (PSR sort gate): high polyreactivity

## QVQLVESGGGLVQAGGSLRLSCAASGSTFQGNAMGWYRQAPGKERELVAAISSDGSTDYADSVKGRFTISRDNAKNTVYLQMNSLKPEDTAVYYCNRVSPGPDADLEFDYWGQGTQVTVSS
  polyreactivity (PSR sort gate): low polyreactivity

## QVQLVESGGGLVQAGGSLRLSCAASGSTFQIYAMGWYRQPPGKDRELVAANTSSSSTNYADSVKGRFTISRENAKNTVYLQMNSLKPEDTAVYYCAAAVSWRSNWYDYWGQGTQVTVSS
  polyreactivity (PSR sort gate): low polyreactivity
